Assay results: patent publication CN117866903A

Target: T1, 生物素化的IL-17A of the IL-17A[Biotinylated] : IL-17RA Inhibitor Screening ELISA Kit (ACROBiosystems, EP-139) (UniProt Q16552)
T1 sequence (biotinylated, looked up): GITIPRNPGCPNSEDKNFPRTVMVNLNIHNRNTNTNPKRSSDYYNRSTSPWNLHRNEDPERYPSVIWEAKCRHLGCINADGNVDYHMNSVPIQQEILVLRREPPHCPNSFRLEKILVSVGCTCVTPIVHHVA
Assay: competition ELISA kit (ACROBiosystems EP-139): IL-17RA coated, biotinylated IL-17A, culture supernatant diluted 5-fold

B1: IL-17Nb secreted by C3-H10-MSC (1-C3-3-H10: Fc融合蛋白, VHH-(GGGGS)3-VHH-IgG4 Fc) (Fc fusion)
chain: DVQLVESGGGLVEPGESLRLSCAAPGEDLGYYAIAWFRQAPGKEREVVSCVTSSGSSTNYLSSVKDRFTISIDNAKNTVYLQMNSLKPEDTAVYYCASTILLCSDYISAFGTWGQGTQVTVASGGGGSGGGGSGGGGSEVQLVESGGGLVQPGGSLRLSCAASGFSIHIYAMGWYRQAPGKQRELVATITRGGVTNNADSVKGRFTISRDNAKNTAYLQMNSLKPEDTAVYYCNAGGTNGGYWGQGTQVTVSSAPEFLGGPSVFLFPPKPKDTLMISRTPEVTCVVVDVSQEDPEVQFNWYVDGVEVHNAKTKPREEQFNSTYRVVSVLTVLHQDWLNGKEYKCKVSNKGLPSSIEKTISKAKGQPREPQVYTLPPSQEEMTKNQVSLTCLVKGFYPSDIAVEWESNGQPENNYKTTPPVLDSDGSFFLYSRLTVDKSRWQEGNVFSCSVMHEALHNHYTQKSLSLSLGK
- 结合抑制率: 58%
